Target: ClpXP (ClpX6P14) with Cy3-labeled ClpPQ48C, immobilized through biotinylated ClpX6 (Escherichia coli) (UniProt P0A6H1)
Experiment: single-molecule TIRF fluorescence with alternating laser excitation

Substance | total dwell time (Δτ, bound and processed)
Titin-I27 V13P with the C-terminal ssrA tag, Cy5-labeled at Cys (domain or fragment) | 7.3 s
Titin-I27 wild-type with the C-terminal ssrA tag, Cy5-labeled at Cys (domain or fragment) | 7.5 s
